In patent publication US20140134132A1 one finds OATP1B13 IC50 data, which are given here for 50 substances.

The target in the test is organic anion transporting polypeptide 1B1 (UniProt Q9Y6L6). The test can be described thus: cell-based or functional assay.
Chain of organic anion transporting polypeptide 1B1 (Q9Y6L6 whole entry): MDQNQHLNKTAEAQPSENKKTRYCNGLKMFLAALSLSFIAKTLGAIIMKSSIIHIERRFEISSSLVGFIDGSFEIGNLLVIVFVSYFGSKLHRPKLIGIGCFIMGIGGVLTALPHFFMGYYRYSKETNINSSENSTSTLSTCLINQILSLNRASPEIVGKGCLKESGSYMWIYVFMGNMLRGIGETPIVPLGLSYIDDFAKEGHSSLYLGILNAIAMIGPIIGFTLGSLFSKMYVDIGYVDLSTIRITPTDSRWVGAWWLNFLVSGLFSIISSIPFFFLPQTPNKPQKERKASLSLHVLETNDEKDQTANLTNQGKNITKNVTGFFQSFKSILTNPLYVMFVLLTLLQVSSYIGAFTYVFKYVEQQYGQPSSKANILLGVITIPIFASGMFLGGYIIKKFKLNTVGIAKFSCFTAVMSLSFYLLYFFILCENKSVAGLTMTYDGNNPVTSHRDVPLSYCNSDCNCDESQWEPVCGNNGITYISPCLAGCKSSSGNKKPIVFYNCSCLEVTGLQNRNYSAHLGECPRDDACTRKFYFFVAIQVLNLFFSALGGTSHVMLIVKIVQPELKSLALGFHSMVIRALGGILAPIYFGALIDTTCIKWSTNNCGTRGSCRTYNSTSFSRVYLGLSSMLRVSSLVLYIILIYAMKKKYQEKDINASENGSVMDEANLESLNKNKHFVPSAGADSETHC
In the case of “3-[D-Ala]-4-[(2S,3R)-3-methyl-2-(methylamino)-6-((4-methylpiperazine-1-carbonyl)oxy)hexanoyl]-cyclosporin (peptide)”, the OATP1B13 IC50 came out at 2900 nM.

“3-[D-Ala]-4-[(2S,3R)-3-methyl-2-(methylamino)-6-(((1-methylpiperidin-4-yl)carbamoyl)oxy)hexanoyl]-cyclosporin (peptide)” had an OATP1B13 IC50 of 7800 nM.

In turn, “3-[D-Ala]-4-[(2S,3R)-3-methyl-2-(methylamino)-6-morpholino-6-oxohexanoyl]-cyclosporin (peptide)” gave an OATP1B13 IC50 of 4800 nM.

As to “3-[D-Ala]-4-[(2S,3R)-3-methyl-4-(methyl(pyridin-3-ylmethyl)amino)-2-(methylamino)butanoyl]-cyclosporin (peptide)”, the OATP1B13 IC50 is 1000 nM.

With “3-[D-Ala]-4-[(2S,3R)-3-methyl-6-((methyl(1-methylpiperidin-4-yl)carbamoyl)oxy)-2-(methylamino)hexanoyl]-cyclosporin (peptide)”, the OATP1B13 IC50 came out at 3700 nM.

“3-[D-Ala]-4-[(2S,3R)-4-(3,3-difluoropyrrolidin-1-yl)-3-methyl-2-(methylamino)butanoyl]-cyclosporin (peptide)” gave an OATP1B13 IC50 of 1400 nM.

Consider “3-[D-Ala]-4-[(2S,3R)-4-(3-methoxyazetidin-1-yl)-3-methyl-2-(methylamino)butanoyl]-cyclosporin (peptide)”, for which the OATP1B13 IC50 was found to be 4200 nM.

With “3-[D-Ala]-4-[(2S,3R)-4-(4-(ethoxycarbonyl)piperazin-1-yl)-3-methyl-2-(methylamino)butanoyl]-cyclosporin (peptide)”, the OATP1B13 IC50 is 2100 nM.

In turn, “3-[D-Ala]-4-[(2S,3R)-4-(4-acetylpiperazin-1-yl)-3-methyl-2-(methylamino)butanoyl]-cyclosporin (peptide)” displayed an OATP1B13 IC50 of 2300 nM.

Regarding “3-[D-Ala]-4-[(2S,3R)-4-(4-cyanopiperidin-1-yl)-3-methyl-2-(methylamino)butanoyl]-cyclosporin (peptide)”, the OATP1B13 IC50 was determined as 1900 nM.

“3-[D-Ala]-4-[(2S,3R)-4-(8-oxa-3-azabicyclo[3.2.1]octan-3-yl)-3-methyl-2-(methylamino)butanoyl]-cyclosporin (peptide)” had an OATP1B13 IC50 of 1700 nM.

As to “3-[D-Ala]-4-[(2S,3R)-4-((2-(dimethylamino)-2-oxoethyl)(methyl)amino)-3-methyl-2-(methylamino)butanoyl]-cyclosporin (peptide)”, the OATP1B13 IC50 was determined as 2700 nM.

With “3-[D-Ala]-4-[(2S,3R)-4-((2-methoxyethyl)(methyl)amino)-3-methyl-2-(methylamino)butanoyl]-cyclosporin (peptide)”, the OATP1B13 IC50 is 1900 nM.

In turn, “3-[D-Ala]-4-[(2S,3R)-4-((2S,5S)-2,5-dimethylmorpholino)-3-methyl-2-(methylamino)butanoyl]-cyclosporin (peptide)” gave an OATP1B13 IC50 of 2600 nM.

As to “3-[D-Ala]-4-[(2S,3R)-4-((4-ethylpiperazine-1-carbonyl)oxy)-3-methyl-2-(methylamino)butanoyl]-cyclosporin (peptide)”, the OATP1B13 IC50 stood at 2200 nM.

Take “3-[D-Ala]-4-[(2S,3R)-4-cyano-3-methyl-2-(methylamino)butanoyl]-cyclosporin (peptide)”: the OATP1B13 IC50 was 900 nM.

As to “3-[D-Ala]-4-[(2S,3R)-5-(3-methoxyazetidin-1-yl)-3-methyl-2-(methylamino)pentanoyl]-cyclosporin (peptide)”, the OATP1B13 IC50 was determined as 1400 nM.

With “3-[D-Ala]-4-[(2S,3R)-5-(4-(2-methoxyethyl)piperazin-1-yl)-3-methyl-2-(methylamino)pentanoyl]-cyclosporin (peptide)”, the OATP1B13 IC50 came to 9100 nM.

As for “3-[D-Ala]-4-[(2S,3R)-5-(4-cyanopiperidin-1-yl)-3-methyl-2-(methylamino)pentanoyl]-cyclosporin (peptide)”, the OATP1B13 IC50 was found to be 2400 nM.

The substance “3-[D-Ala]-4-[(2S,3R)-5-(4-cyclobutylpiperazin-1-yl)-3-methyl-2-(methylamino)pentanoyl]-cyclosporin (peptide)” registered an OATP1B13 IC50 of 2100 nM.

With “3-[D-Ala]-4-[(2S,3R)-6-(4-(2-methoxyethyl)piperazin-1-yl)-3-methyl-2-(methylamino)hexanoyl]-cyclosporin (peptide)”, the OATP1B13 IC50 stood at 2200 nM.

As for “3-[D-Ala]-4-[(2S,3R)-6-(4-ethylpiperazin-1-yl)-3-methyl-2-(methylamino)hexanoyl]-cyclosporin (peptide)”, the OATP1B13 IC50 was 2600 nM.

“3-[D-Ala]-4-[(2S,3R)-6-(4-methoxypiperidin-1-yl)-3-methyl-2-(methylamino)hexanoyl]-cyclosporin (peptide)” came in with an OATP1B13 IC50 of 4300 nM.

As to “3-[D-Ala]-4-[(2S,3R)-6-(8-oxa-3-azabicyclo[3.2.1]octan-3-yl)-3-methyl-2-(methylamino)-6-oxohexanoyl]-cyclosporin (peptide)”, the OATP1B13 IC50 was 1900 nM.

Substance “3-[D-Ala]-4-[(2S,3R)-6-hydroxy-3,6-dimethyl-2-(methylamino)heptanoyl]-cyclosporin (peptide)” had an OATP1B13 IC50 of 2200 nM.

For the substance “3-[D-Ala]-4-[(2S,3S)-3-methyl-2-(methylamino)-4-(2-(4-methylpiperazin-1-yl)-2-oxoethoxy)butanoyl]-cyclosporin (peptide)”, the OATP1B13 IC50 is 9400 nM.

Consider “3-[D-Ala]-4-[(2S,3S)-3-methyl-2-(methylamino)-4-(2-((S)-3-methylmorpholino)ethoxy)butanoyl]-cyclosporin (peptide)”, for which the OATP1B13 IC50 turned out to be 4800 nM.

As to “3-[D-Ala]-4-[(2S,3S)-3-methyl-2-(methylamino)-4-(2-oxo-2-(piperazin-1-yl)ethoxy)butanoyl]-cyclosporin (peptide)”, the OATP1B13 IC50 turned out to be 6900 nM.

Substance “3-[D-Ala]-4-[(2S,3S)-3-methyl-2-(methylamino)-4-(((S)-tetrahydrofuran-3-yl)oxy)butanoyl]-cyclobsporin (peptide)” came in with an OATP1B13 IC50 of 1900 nM.

With “3-[D-Ala]-4-[(2S,3S)-3-methyl-2-(methylamino)-4-((S)-3-oxotetrahydro-1H-oxazolo[3,4-a]pyrazin-7(3H)-yl)butanoyl]-cyclosporin (peptide)”, the OATP1B13 IC50 worked out at 1400 nM.

“3-[D-Ala]-4-[(2S,3S)-3-methyl-2-(methylamino)-4-((morpholine-4-carbonyl)oxy)butanoyl]-cyclosporin (peptide)” displayed an OATP1B13 IC50 of 2300 nM.

“3-[D-Ala]-4-[(2S,3S)-3-methyl-4-(2-(methyl(2,2,2-trifluoroethyl)amino)ethoxy)-2-(methylamino)butanoyl]-cyclosporin (peptide)” came in with an OATP1B13 IC50 of 1900 nM.

Regarding “3-[D-Ala]-4-[(2S,3S)-4-(2-(4-cyclohexylpiperazin-1-yl)-2-oxoethoxy)-3-methyl-2-(methylamino)butanoyl]-cyclosporin (peptide)”, the OATP1B13 IC50 turned out to be 3500 nM.

The substance “3-[D-Ala]-4-[(2S,3S)-4-(2-(4-isopropylpiperazin-1-yl)-2-oxoethoxy)-3-methyl-2-(methylamino)butanoyl]-cyclosporin (peptide)” registered an OATP1B13 IC50 of 8000 nM.

As for “3-[D-Ala]-4-[(2S,3S)-4-(2-(4-isopropylpiperazin-1-yl)ethoxy)-3-methyl-2-(methylamino)butanoyl]-cyclosporin (peptide)”, the OATP1B13 IC50 came out at 4400 nM.

Consider “3-[D-Ala]-4-[(2S,3S)-4-(2-((2R,5R)-2,5-dimethylmorpholino)ethoxy)-3-methyl-2-(methylamino)butanoyl]-cyclosporin (peptide)”, for which the OATP1B13 IC50 came out at 3600 nM.

In the case of “3-[D-Ala]-4-[(2S,3S)-4-(2-((S)-3-methoxypyrrolidin-1-yl)ethoxy)-3-methyl-2-(methylamino)butanoyl]-cyclosporin (peptide)”, the OATP1B13 IC50 is 5000 nM.

For “3-[D-Ala]-4-[(2S,3S)-4-((4-ethylpiperazine-1-carbonyl)oxy)-3-methyl-2-(methylamino)butanoyl]-cyclosporin (peptide)”, the OATP1B13 IC50 amounted to 1900 nM.

For the substance “3-[D-Ala]-4-[(2S,3S)-4-(((S)-4-isopropylmorpholin-2-yl)methoxy)-3-methyl-2-(methylamino)butanoyl]-cyclosporin (peptide)”, the OATP1B13 IC50 stood at 4300 nM.

Regarding “3-[D-Ala]-4-[(2S,3S)-4-hydroxy-3-methyl-2-(methylamino)butanoyl]-cyclosporin (peptide)”, the OATP1B13 IC50 was determined as 3600 nM.

For “3-[D-Ala]-4-[(S)-4-methoxy-3-(methoxymethyl)-2-(methylamino)butanoyl]-cyclosporin (peptide)”, the OATP1B13 IC50 is 2600 nM.

Substance “3-[D-Ala]-4[(2S,3R)-2-Amino-3-methyl-4-(4-oxetan-3-yl-piperazin-1-yl)]-butanoyl]-cyclosporin (peptide)” had an OATP1B13 IC50 of 1170 nM.

The substance “3-[D-Ala]-4[(2S,3R)-2-Amino-4-(4-cyclobutyl-piperazin-1-yl)-butanoyl]-cyclosporin (peptide)” came in with an OATP1B13 IC50 of 5200 nM.

Take “3-[D-Ala]-4[(2S,3R)-2-Amino-4-(4-ethyl-piperazin-1-yl)-butanoyl]-cyclosporin (peptide)”: the OATP1B13 IC50 came to 4560 nM.

The substance “3-[D-Ala]-4[(2S,3R)-2-Amino-4-(4-isopropyl-piperazin-1-yl)-butanoyl]-cyclosporin (peptide)” had an OATP1B13 IC50 of 2440 nM.

In the case of “3-[D-Ala]-4[(2S,3R)-2-Amino-4-[4-(2-methoxy-ethyl)-piperazin-1-yl]-3-methyl-butanoyl]-cyclosporin (peptide)”, the OATP1B13 IC50 came to 6100 nM.

In turn, “3-[D-Ala]-4[(2S,3S)-2-Amino-3-methyl-4-(4-oxetan-3-yl-piperazin-1-yl)-butanoyl]-cyclosporin (peptide)” came in with an OATP1B13 IC50 of 1800 nM.

Consider “3-[D-Ala]-4[(2S,3S)-2-Amino-3-methyl-4-morpholin-4-yl-butanoyl]-cyclosporin (peptide)”, for which the OATP1B13 IC50 is 3600 nM.

Take “3-[D-Ala]-4[(2S,3S)-2-Amino-4-(4-cyclobutyl-piperazin-1-yl)-3-methyl-butanoyl]-cyclosporin (peptide)”: the OATP1B13 IC50 came to 4000 nM.

The substance “3-[D-Ala]-4[(2S,3S)-2-Amino-4-(4-ethyl-piperazin-1-yl)-3-methyl-butanoyl]-cyclosporin (peptide)” registered an OATP1B13 IC50 of 5100 nM.
